Key:
[1] = biological target: recombinant soluble human CD4 (human) (UniProt P01730); test: SPR, sCD4 amine-coupled to sensor chip, antibody flowed over
[2] = biological target: native human CD4 on the cell surface (human) (UniProt P01730); test: flow cytometry, serial dilutions on SupT1 cells, half-maximal fluorescence

Row | koff [1] [s⁻¹] | Ka [2] [M⁻¹] | Substance
1 | 4.2e-05 | – | Leu3a (antibody)
2 | – | 5e+09 | chimeric Leu3a (antibody)
